The target in experiment [1] is T1, recombinant mouse Trop-2-his protein (Cat.: 50922-M08H, Beijing Yiqiao Shenzhou Science and Technology Co., … (mouse, UniProt Q8BGV3 25-270)).
T1 construct: Bought protein; not shown: his tag
T1 sequence (looked up): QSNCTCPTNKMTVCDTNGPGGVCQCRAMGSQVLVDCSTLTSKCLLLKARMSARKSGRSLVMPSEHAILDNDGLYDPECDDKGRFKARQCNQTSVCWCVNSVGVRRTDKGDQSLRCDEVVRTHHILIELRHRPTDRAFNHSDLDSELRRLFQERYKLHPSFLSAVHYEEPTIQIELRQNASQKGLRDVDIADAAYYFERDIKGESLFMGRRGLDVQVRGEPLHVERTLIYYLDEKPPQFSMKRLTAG
Kind of experiment: ELISA, coated mouse Trop-2-his, purified murine antibody. On the procedure:
(§1) Washed with PBS 3 times, the plates were blocked with the added 5% BSA PBS at 37° C. for 60 min, and then washed 3 times with PBST. The 15 purified murine antibodies were diluted to 1 μg/ml with PBS. Controls as follows were set: (1) Positive Control (PC): Sacituzumab (WHO Drug Information (Vol. 31, No. 1, 2017), SEQ ID NO: 39 and SEQ ID NO: 40), a version having murine IgG constant region, […]; (2) Negative Control (NC): an antibody from an irrelevant hybridoma, 1 μg/ml; (3) blank control: PBS. After incubation at 37° C. for 60 min, the plates were washed 4 times with PBST. […] Afterwards, the plates were washed with PBST 4 times, and TMB substrate was added for color development at 37° C. for 10 min. Then 2M HCl was added to stop reaction; and absorbances at 450 nm and at 630 nm (as reference wavelength) were read, and A450 nm-630 nm values of the wells in the plates were recorded.

The target of experiment [2] is T2, recombinant human Trop-2-his protein (ACCESSION NO.: NP_002344.2, AA 1-274) (human, UniProt P09758 27-274).
T2 construct: range 27-274; also called recombinant human Trop-2 protein; recombinant human Trop-2 extracellular domain; not shown: his tag
T2 sequence (looked up): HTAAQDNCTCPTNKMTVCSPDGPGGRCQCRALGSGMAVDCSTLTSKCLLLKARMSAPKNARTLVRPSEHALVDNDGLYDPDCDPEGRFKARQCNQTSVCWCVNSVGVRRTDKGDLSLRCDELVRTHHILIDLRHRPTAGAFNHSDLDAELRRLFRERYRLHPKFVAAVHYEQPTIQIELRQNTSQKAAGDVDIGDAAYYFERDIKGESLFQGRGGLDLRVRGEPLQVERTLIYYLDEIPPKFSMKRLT
Kind of experiment: BLI, antibody on AHC sensor, Trop-2-his 60 nM. An outline of the steps: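 Humanized antibodies at 4 μg/ml in PBS captured via Fc on anti-human IgG Fc (AHC) biosensors for 120 s; 60 nM Trop-2-his (AA 1-274) as analyte, 100 s association, 300 s dissociation. Blank-subtracted responses fitted to 1:1 Langmuir model for kinetic constants.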
On the technique in general: In BLI a coated tip is dipped into the sample, and binding shifts an interference pattern.

For experiment [3], the target named is T3, recombinant cynomolgus Trop-2-his protein (ACCESSION NO.: UniProtKB-A0A2K5UE71, AA 1-272) (cynomolgus, UniProt A0A2K5UE71 1-272).
T3 construct: The printed range begins at residue 1; not shown: his tag
T3 sequence: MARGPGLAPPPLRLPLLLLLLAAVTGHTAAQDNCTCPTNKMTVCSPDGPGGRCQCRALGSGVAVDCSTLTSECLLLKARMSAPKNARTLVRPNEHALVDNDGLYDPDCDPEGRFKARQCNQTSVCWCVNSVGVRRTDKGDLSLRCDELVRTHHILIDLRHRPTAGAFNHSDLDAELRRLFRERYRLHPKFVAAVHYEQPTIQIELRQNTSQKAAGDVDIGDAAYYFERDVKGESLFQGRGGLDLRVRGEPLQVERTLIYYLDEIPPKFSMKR
Kind of experiment: ELISA, coated cynomolgus Trop-2-his 1 µg/ml. As to the method:
(§2) Washed with PBS 3 times, the plates were blocked with the added 5% BSA PBS at 37° C. for 60 min, and then washed 3 times with PBST. Different concentrations of h23-12 (serial dilutions of 14 concentrations obtained through 3-fold serially diluting a solution with an initial concentration of 10 μg/ml), h4-3 (serial dilutions of 12 concentrations obtained through 3-fold serially diluting a solution with an initial concentration of 3 μg/ml), and Sacituzumab (serial dilutions of 12 concentrations obtained through 3-fold serially diluting a solution with an initial concentration of 3 μg/ml) were added into the plates, with each concentration provided in a parallel well. The plates were incubated at 37° C. for 60 min, and then were washed 4 times with PBST. 1:5000 dilution of H1RP-anti-human Fc (Cat.: 109-035-098, Jackson ImmunoResearch) was added into the plates for incubation at 37° C. for 30 min. Afterwards, the plates were washed with PBST 4 times, and TMB substrate was added for color development at 37° C. for 10 min. Then 2M HCl was added to stop reaction; and absorbances at 450 nm and at 630 nm (as reference wavelength) were read, and A450 nm-630 nm values of the wells in the plates were recorded.
A general note: ELISA stands for enzyme-linked immunosorbent assay.

In experiment [4] the target is T1, recombinant mouse Trop-2-his protein …. Kind of experiment: ELISA, coated mouse Trop-2-his 1 µg/ml. On the procedure:
as §2

Experiment [5] has as its target T2, recombinant human Trop-2-his protein …. Briefly: BLI, antibody on AHC sensor, Trop-2-his 23, 30, 45, 60 nM. As to the method: Affinities of the antibodies were determined by an assay including capturing Fc fragments of the antibodies with anti-human IgG Fc capture (AHC) biosensors using Octet QKe system instrument from Fortebio.
For the assay, each of the antibodies (h23-12, h4-3, and control antibody Sacituzumab) was diluted to 4 μg/ml in PBS, and was allowed to flow through the surface of an AHC biosensor (Cat.: 18-0015, PALL) for 120 s. Recombinant human Trop-2-his protein (ACCESSION NO.: NP_002344.2, AA 1-274) was used as a mobile phase. The Trop-2-his protein was used in following concentrations which corresponded to different antibodies: in case of h23-12, the Trop-2 was used in concentrations of 23, 30, 45, and 75 nM; in case of h4-3, it was used in concentrations of 23, 30, 45, and 60 nM; and in case of Sacituzumab, it was used in concentrations of 23, 30, 45, and 75 nM. The binding time was 100 s and the dissociation time was 300 s. When the assay was finished, data from which the response values of blank control had been deducted were fitted to a 1:1 Langmuir binding model using software, and then kinetic constants for antigen-antibody binding were calculated.

The target is the same in experiment [6]. Kind of experiment: ELISA, coated human Trop-2-his 1 µg/ml. As to the method: as §2
Experiment [7] concerns the target T1, recombinant mouse Trop-2-his protein …. Briefly: ELISA, plate coated with recombinant mouse Trop-2-his, HRP-goat anti-mouse IgG (Fc gamma), OD450/630. As to the method:
as §1

Experiment [8] has the same target. Kind of experiment: ELISA, coated mouse Trop-2-his, purified murine antibody 1 µg/ml. On the procedure: as §1

These results are taken from US20240092930A1 (MABWELL SHANGHAI BIOSCIENCE, published 2024).

B1: m4-3 (antibody, mouse IgG1, V domains shown)
VH: QVQLQQSGPELVKPGASVKMSCKASGFTFTDYVIGWVKQRTGQGLEWIGEIYLGSGTIYYTEKFKGKATLTADTSSNTAYMQLSSLTSEDSAVYFCARGSIFPFDYWGQGTTLTVSS
VL: QIVLTQSPAIMSASPGEKVTMTCSASSSVSYMYWYQQKPGSSPRLLIYDTSTLASGVPVRFSGSGSGTSYSLTISRMEAEDAATYYCQQWSSYPYTFGGGTKLEIK
notes: also called murine antibody 4-3
As for B1, the binding result in experiment [1] was “no binding (tested: 1 µg/ml)”.

B2: m3-11 (antibody, mouse IgG1, V domains shown)
VH: QVQLQQPGAELVKPGSSVKLSCKASGYTFTSYWMYWVKQRPGQGLEWIGEINPSNGRTNYNEKFKSKATLTVDKSSSTAYMQFSSLTSEDSAVYYCTREGHNYDGSLGAMDHWGQGTSVTVSS
VL: DVVVTQTPLSLPVSFGDQVSISCRSSQSLTNSYGNTFLSWYLHKPGQSPQLLLYGISNRFSGVPDRFSGSGSGTDFTLKINTIKPEDLGMYYCFQSTHQPYTFGGGTKLEIK
notes: also called murine antibody 3-11
Turning to B2, the binding result in experiment [1] is “no binding (tested: 1 µg/ml)”.

B3: m23-12 (antibody, mouse IgG1, V domains shown)
VH: QVQLQQPGAELVKPGASVKLSCKADGYIFTSYWMHWVKQRPGQGLEWIGEITPSDNYTSYNQKFKGKATLTVDKSSSTAYMQLSSLTSEDSAVYYCTRGHGNYVSFDYWGQGTTLTVSS
VL: DIQMTQITSSLSASLGDRVTITCRASQDISNYLNWYQQKPDGTVKLLIYYTSRLHSGVPSRFSGSGSGTDYSLTISNLEQEDIATYFCQQGYTLPPYTFGGGTKLEIK
notes: also called murine antibody 23-12
For B3, the binding result in experiment [1] is reported as “no binding (tested: 1 µg/ml)”.

B4: m11-4 (antibody, mouse IgG1, V domains shown)
VH: QVQLQQPGAELVRPGASVNLSCKASGYTFTSYWINWVKQRPGQGLEWIGNIYPSNSYTNYNQKFKDTATLTVDKSSSTAYMQLSSPTSEDSAVYFCSSYRSDGFAYWGQGTLVTVSA
VL: DILLTQSPAILSVSPGEKVSFSCRASQNIGTSIHWYQQRTNGSPRLLIEFASESISGIPSRFSGSGSGTDFTLTINSVESEDIADYYCQQSNSWPFTFGGGTKLEIK
notes: also called murine antibody 11-4; ml 1-4
Consider B4, for which the binding result in experiment [1] is given as “no binding (tested: 1 µg/ml)”.

B5: h4-3-1 (antibody, human IgG1, kappa, V domains shown)
VH: EVQLVQSGPEVKKPGASVKVSCKASGFTFTDYVIGWVRQAPGQGLEWIGEIYLGSGTIYYTEKFKGRVTMTADTSTSTAYMELSSLRSEDTAVYYCARGSIFPFDYWGQGTLVTVSS
VL: DIQLTQSPSSLSASVGDRVTITCSASSSVSYMYWYQQKPGKAPKLLIYDTSTLASGVPSRFSGSGSGTDFTLTISSLQPEDFATYYCQQWSSYPYTFGQGTKLEIKR
notes: also called CDR grafted antibody 4-3
B5: in experiment [2], the Kd (in general, the free concentration of one partner at which half of the binding sites on the other are occupied at equilibrium, for simple one-to-one binding) came to 0.304 nM. Besides, the EC50 (as a rule, the concentration that produces a half-maximal response) in experiment [3] amounted to 0.0461 nM. In addition, in experiment [4], the binding result is listed as “no binding (tested: up to 3 µg/ml)”. Besides, in experiment [5], the Kd was determined as 0.545 nM; the koff (usually the rate constant with which the complex falls apart) amounted to 0.000146 s⁻¹; the kon (as a rule, the rate constant with which the complex forms) is 267000 M⁻¹ s⁻¹. Besides, the EC50 in experiment [6] came out at 0.0469 nM.

B6: PC (antibody, V domains shown)
VH: QVQLQQSGSELKKPGASVKVSCKASGYTFTNYGMNWVKQAPGQGLKWMGWINTYTGEPTYTDDFKGRFAFSLDTSVSTAYLQISSLKADDTAVYFCARGGFGSSYWYFDVWGQGSLVTVSS
VL: DIQLTQSPSSLSASVGDRVSITCKASQDVSIAVAWYQQKPGKAPKLLIYSASYRYTGVPDRFSGSGSGTDFTLTISSLQPEDFAVYYCQQHYITPLTFGAGTKVEIK
notes: not the human IgG1 Sacituzumab m5; also called Positive Control (PC); Sacituzumab, a version having murine IgG constant region; not shown: murine IgG heavy-chain constant region and murine light-chain constant region of this version
Consider B6, for which the binding result in experiment [7] is on record as “no binding (tested: 1 µg/ml (paragraph 111 prints '1 g/ml'))”.

B7: m17-1 (antibody, mouse IgG1, V domains shown)
VH: EVKLVESGGVLVKPGGSLKLSCAASGFTFSDSAMSWVRQTPEKRLEWVASISRGDDTYYPDSVKGRITISRDFARNILYLQMTSLRSEDTAMYYCTRDRFGFAYWGQGTLVTVSA
VL: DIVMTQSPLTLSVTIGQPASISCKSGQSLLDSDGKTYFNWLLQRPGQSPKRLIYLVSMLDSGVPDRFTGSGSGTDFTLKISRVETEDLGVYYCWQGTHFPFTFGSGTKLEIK
notes: also called murine antibody 17-1
In the case of B7, the binding result in experiment [8] is “binds”.
